Laboratory results reported in patent US20050054106.

Biological target: T1, PhiC31 integrase (Streptomyces phage PhiC31) (UniProt Q9T221)
T1 sequence: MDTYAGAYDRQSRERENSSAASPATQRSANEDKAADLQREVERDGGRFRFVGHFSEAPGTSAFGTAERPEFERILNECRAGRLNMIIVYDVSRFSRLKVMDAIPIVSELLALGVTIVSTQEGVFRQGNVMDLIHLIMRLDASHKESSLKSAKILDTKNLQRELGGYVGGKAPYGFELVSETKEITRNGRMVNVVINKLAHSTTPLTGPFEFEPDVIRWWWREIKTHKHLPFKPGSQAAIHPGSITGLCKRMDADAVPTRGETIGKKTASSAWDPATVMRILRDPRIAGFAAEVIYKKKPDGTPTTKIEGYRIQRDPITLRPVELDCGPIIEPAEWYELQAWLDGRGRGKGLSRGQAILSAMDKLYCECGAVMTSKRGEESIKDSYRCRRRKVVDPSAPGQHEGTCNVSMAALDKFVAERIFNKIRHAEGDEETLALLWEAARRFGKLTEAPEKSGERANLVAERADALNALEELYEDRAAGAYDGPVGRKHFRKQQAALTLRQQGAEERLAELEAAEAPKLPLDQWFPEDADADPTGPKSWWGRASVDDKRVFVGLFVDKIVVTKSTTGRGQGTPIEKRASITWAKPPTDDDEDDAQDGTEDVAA
Test: cell_activity
Conditions: S. pombe FY527attP, pLT45+pLT43; 63 without integrase, 120 with thiamine repression

attB (pLT45, 500 bp fragment) ; attP 84 bp (pLT44)
activity (transformants per 10^7 cells): 1100
